Amyloid nucleation score data for 133 substances are collected here from the supplement of paper PMC12042874.

± gives the uncertainty stated by the source.

The data set can be described thus: amyloid nucleation score (Sup35N fusion, yeast selection) (log enrichment); library NNK3; higher = more nucleation; inactive = no reads after selection. The procedure, abridged:
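Using DiMSum, nucleation scores were taken as the log enrichment of output over input reads, centred on the mode score of non-aggregating sequences. The input and output reads came from Illumina sequencing of plasmid inserts, with sequences under 100 input reads excluded. The yeast were psi-negative, expressed Sup35N fused to peptides of 20 random codons, were induced with 100 μM copper sulfate for 24 hours, and were grown 7 days at 30°C on medium lacking adenine and uracil.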
In the case of FTNKNCFIGAVTRCEVRVWG, the amyloid nucleation score entry was “inactive”.

For AMTCNDYSRYVF, the amyloid nucleation score entry is “inactive”.

With LERVSVSTQYLRLHLDLNSF, the amyloid nucleation score entry is “inactive”.

For the substance LSSLVSSSTSCWLWIRTNRL, the amyloid nucleation score result was “inactive”.

For the substance ICQQCWTVT, the amyloid nucleation score result is “inactive”.

For LIFFWSIEA, the amyloid nucleation score result was “inactive”.

On to HAMCHVVGTRISGYLCAYGT, for which the amyloid nucleation score entry is “inactive”.

As to NTVLATYRTNAVFGKTTHYN, the amyloid nucleation score entry is “inactive”.

In the case of FKASSGWLDLWD, the amyloid nucleation score entry is “inactive”.

On to GDIRLGVAFRIFLSNCWGYF, for which the amyloid nucleation score entry was “inactive”.

NALMKSVTFWCSAGISISRL: the amyloid nucleation score is 1.26 ± 0.11.

Consider VAFDIINRQNIINEWGCWID, for which the amyloid nucleation score result is “inactive”.

In the case of RLQMGVLDLFYFD, the amyloid nucleation score entry is “inactive”.

In turn, VFTSGLCEKS had an amyloid nucleation score of 0.195 ± 0.72.

Consider SGVWTF, for which the amyloid nucleation score entry is “inactive”.

Regarding QRYSLHDINEDYRYDWVNGL, the amyloid nucleation score entry was “inactive”.

As for LTRLSRNHVVRWRYIREGGW, the amyloid nucleation score entry is “inactive”.

In the case of VLPCVMYNIHPQITCRR, the amyloid nucleation score result is “inactive”.

For the substance CCAGSLLLNRVQV, the amyloid nucleation score result was “inactive”.

SYCATCHIPRENMSLQCVME showed an amyloid nucleation score of 1.3 ± 0.1.

GAGYL: the amyloid nucleation score result was “inactive”.

On to QPCPYKLCQFFRKDA, for which the amyloid nucleation score entry was “inactive”.

As for SVEMIPDSGLSVRMGFEGLV, the amyloid nucleation score result is “inactive”.

Take MQLDLMCCLVSCTMNTFSSR: the amyloid nucleation score is 1.54 ± 0.11.

As to LILAMSRLALWSL, the amyloid nucleation score entry is “inactive”.

Consider FASTVCEIPSFPWTKPRIMV, for which the amyloid nucleation score entry is “inactive”.

As to NCPQWDVCFTYLSSGRQRAD, the amyloid nucleation score entry is “inactive”.

Regarding CVMCG, the amyloid nucleation score entry is “inactive”.

On to LLSVTCTG, for which the amyloid nucleation score entry is “inactive”.

For the substance LSNQLKDEYHCMWMWWVCPN, the amyloid nucleation score came out at 1.29 ± 0.13.

Take CCRGRAFVGYLLQIIYVRGR: the amyloid nucleation score entry was “inactive”.

Take DEPAFQDFVLYTSSSSCWRY: the amyloid nucleation score result is “inactive”.

As for TASTQSPYHFYCRV, the amyloid nucleation score entry was “inactive”.

For GACTHGRSSCDKIYLRYSYG, the amyloid nucleation score entry was “inactive”.

Consider WWHVIMYTGHKCNLSCDSVG, for which the amyloid nucleation score entry is “inactive”.

For the substance RMGLTEMWHVIPSITSRQYL, the amyloid nucleation score entry is “inactive”.

Turning to CRDYYYHSQYCVVASVGTVV, the amyloid nucleation score entry was “inactive”.

As for NMYSISTLHRKLADPVCSV, the amyloid nucleation score result was “inactive”.

Consider RINSVQGDGVLNLCPRLRVP, for which the amyloid nucleation score entry was “inactive”.

With IVRHVVYVSCGIQYCDHFWH, the amyloid nucleation score result was “inactive”.

In the case of DFHDLEWILNIEGACEEQGT, the amyloid nucleation score entry was “inactive”.

Take CLILCLIKYIERRFCWCFPW: the amyloid nucleation score entry is “inactive”.

Turning to SCTRIVY, the amyloid nucleation score entry is “inactive”.

Take GNWSYVENYV: the amyloid nucleation score result is “inactive”.

Turning to LVSDEPNLGFDN, the amyloid nucleation score result is “inactive”.

YLWARNGDLLLSCCSLNSCM registered an amyloid nucleation score of 2.52 ± 0.061.

Turning to YSRMCLVY, the amyloid nucleation score entry is “inactive”.

Turning to CFLVNQ, the amyloid nucleation score result is “inactive”.

The substance LGNSFLE had an amyloid nucleation score of -0.445 ± 0.84.

Regarding SVDVMTGLPTWSYLCDDETR, the amyloid nucleation score was determined as 2.2 ± 0.06.

For the substance SGFFSVAGIGWYTIYFCIYR, the amyloid nucleation score entry is “inactive”.

Consider DSLTDVMTWELWDIYHVKHE, for which the amyloid nucleation score entry was “inactive”.

As for ICVLCSGIMKMCCAMGDLSV, the amyloid nucleation score was 1.36 ± 0.064.

Consider SVILCFSV, for which the amyloid nucleation score entry is “inactive”.

VVWLSNSEWLRYLKDG: the amyloid nucleation score entry was “inactive”.

For GFIGECFFDHMGITFVLIET, the amyloid nucleation score entry was “inactive”.

For the substance WLFRRVGMVTHAWMYWFKSR, the amyloid nucleation score result is “inactive”.

As to YVCDRL, the amyloid nucleation score result is “inactive”.

Regarding NVGTS, the amyloid nucleation score entry was “inactive”.

With MDQMPKKYLVLAAAAVVRMV, the amyloid nucleation score entry was “inactive”.

Consider RVACFQIHGK, for which the amyloid nucleation score result was “inactive”.

For DYIEGLECVFRDPARIFLWG, the amyloid nucleation score was -0.226 ± 1.1.

Consider LYLGLFVSWCSLKSTAWFGK, for which the amyloid nucleation score entry was “inactive”.

In turn, IVSVQVVLLYQM returned an amyloid nucleation score of 1.12 ± 0.14.

In turn, LTMALYWTCSLTHILSYGID had an amyloid nucleation score of 0.062 ± 0.23.

For the substance GVAELMGVWDVKLVVPLEES, the amyloid nucleation score entry was “inactive”.

The substance WMYHMHENYN returned an amyloid nucleation score of 1.18 ± 0.1.

Turning to GVVSSSPMCVNSDREVVEKT, the amyloid nucleation score entry is “inactive”.

As to LPTCYSF, the amyloid nucleation score entry was “inactive”.

Consider NRYRTYVCLKDKRRSFKSGM, for which the amyloid nucleation score result was “inactive”.

For YINSFCTRKSYIY, the amyloid nucleation score entry was “inactive”.

In the case of QFNMKVFMHDWWRLLLPKSK, the amyloid nucleation score result is “inactive”.

Regarding ALFLIFSRELHSNDNLLECS, the amyloid nucleation score is 0.367 ± 0.14.

For LAKCVSVHSIYIHDSICPVG, the amyloid nucleation score entry is “inactive”.

For the substance SYSIWSLLEIDF, the amyloid nucleation score result was “inactive”.

Take INTLYMTDRDRSLPESVQNL: the amyloid nucleation score result is “inactive”.

As to DLGYVLLMTHSRIMMCLHHY, the amyloid nucleation score result is “inactive”.

For SISSYMD, the amyloid nucleation score result is “inactive”.

As for RYFSFELKLMLISELYVMAV, the amyloid nucleation score entry was “inactive”.

In turn, DATSNC yielded an amyloid nucleation score of -0.232 ± 0.73.

Regarding CLSGRCRASMLPLGRVSKCD, the amyloid nucleation score entry was “inactive”.

For ALCKVMSKLPSISW, the amyloid nucleation score result was “inactive”.

Regarding SRNVLYLVIKIYFEDFNPLS, the amyloid nucleation score entry is “inactive”.

As to LKVSAFAYDKFLQRYMTVVT, the amyloid nucleation score entry is “inactive”.

For the substance GCAGRSWTGYRVHAASV, the amyloid nucleation score entry is “inactive”.

LSTNTKSKTPYNVRMSLTGG displayed an amyloid nucleation score of 0.49 ± 0.34.

As to VTKGWQGLGGLMGGEVCPWV, the amyloid nucleation score entry was “inactive”.

With LMSYV, the amyloid nucleation score result was “inactive”.

For the substance SLSIMYIFTWDGPYIECTFY, the amyloid nucleation score amounted to 2.71 ± 0.069.

With MRLYLFSRYPLARTTFMSTC, the amyloid nucleation score result is “inactive”.

As to NMFRARGCSDFFLACMNDSA, the amyloid nucleation score entry was “inactive”.

Take MSSPAPFWSVNSVLAIKNLF: the amyloid nucleation score result was “inactive”.

For CGRGDSVLSI, the amyloid nucleation score result is “inactive”.

Regarding TCKCGSALK, the amyloid nucleation score worked out at 0.384 ± 0.21.

As for RPGVC, the amyloid nucleation score result was “inactive”.

Consider GILSISQNKISVHPLLLLRI, for which the amyloid nucleation score entry is “inactive”.

Turning to VYNRVHNCGMKVANYDTRDK, the amyloid nucleation score result is “inactive”.

Consider TRCGFS, for which the amyloid nucleation score result was “inactive”.

For DDLYMFMLIVRMLISQIKRV, the amyloid nucleation score entry was “inactive”.

As for QPCDHWHEDLNVCVVVIYAG, the amyloid nucleation score entry is “inactive”.

As to YIHIGAM, the amyloid nucleation score entry was “inactive”.

VLCHQCWCRKIWPMN: the amyloid nucleation score entry was “inactive”.

Take GWKLSSVGNKRDCSSMHVDR: the amyloid nucleation score stood at 0.101 ± 0.19.

As to INTEGLVVIVGGRLYVILRV, the amyloid nucleation score result was “inactive”.

In the case of IQLMLFIDCLSENCYVWLRY, the amyloid nucleation score entry is “inactive”.

On to QPMKLRT, for which the amyloid nucleation score entry was “inactive”.

Turning to STGYYVMDVYLTVAYYVDSN, the amyloid nucleation score result was “inactive”.

Turning to YLLMTGVWWYYQMCVVVYM, the amyloid nucleation score entry was “inactive”.

Consider ACFVKY, for which the amyloid nucleation score result was “inactive”.

On to HSLHMGRKAMQYEYTQPAGI, for which the amyloid nucleation score entry was “inactive”.

Turning to PMHAIIKLYM, the amyloid nucleation score entry was “inactive”.

For YHRTFWSFGSKVFLRVNWCR, the amyloid nucleation score entry was “inactive”.

On to DECSAHSSFQLSKSILFGQV, for which the amyloid nucleation score result is “inactive”.

As to VAFVNKCFSD, the amyloid nucleation score result is “inactive”.

In turn, TQFISLSGGRTHLSGFLVFG yielded an amyloid nucleation score of 0.957 ± 0.14.

Take CPYALMWSLSYSWSFPYRMS: the amyloid nucleation score was 0.286 ± 0.56.

Substance FELRGTLGG had an amyloid nucleation score of 0.026 ± 0.37.

In turn, TNYYFALLGYYHLFSSTGHR showed an amyloid nucleation score of 2.66 ± 0.064.

On to GYKDIDLTSERGK, for which the amyloid nucleation score result is “inactive”.

In turn, SVLYRWGYRTGWEL showed an amyloid nucleation score of 0.128 ± 0.52.

In the case of YYWTKGGFKEITI, the amyloid nucleation score entry is “inactive”.

Consider GFNYVFDSGEFGDRSFWHIY, for which the amyloid nucleation score entry was “inactive”.

For GNSVRIAWQVWCTLCMTRQW, the amyloid nucleation score amounted to 0.356 ± 0.22.

Regarding TYFTFSREVKMMVHTNCCLL, the amyloid nucleation score is 0.594 ± 0.2.

On to CLCVTAGYISNTGGHRSWII, for which the amyloid nucleation score entry is “inactive”.

Consider GCHLFHWFIFAYCYHYEGTN, for which the amyloid nucleation score came to 1.91 ± 0.09.

Regarding EVVPCCF, the amyloid nucleation score entry was “inactive”.

For the substance EAEGNINTRGTHRCLYGSFK, the amyloid nucleation score entry is “inactive”.

With IEFGYLGT, the amyloid nucleation score entry was “inactive”.

Turning to SYRCMSESRFYYFLSCHARR, the amyloid nucleation score result is “inactive”.

Turning to GSDVMSGG, the amyloid nucleation score entry was “inactive”.

Regarding GDMFGQPCRTCMFDLLKPVS, the amyloid nucleation score entry is “inactive”.

With AIDHSFT, the amyloid nucleation score entry was “inactive”.
